# Source: PMC10665462
# Molecular target: BTN3A1 full intracellular domain (human)
# Assay: ITC; nanoITC; 300 μM BTN2A1 ID271 titrated into a mixture of 60 μM BTN3A1 BFI and 120 μM 4-M-HMBPP; independent fit (NanoAnalyze)
substance,measurement,value
BTN2A1 intracellular domain (domain or fragment),KD with 4-M-HMBPP,190 µM
same,N with 4-M-HMBPP,0.08
same,dH with 4-M-HMBPP,-23.9 kcal/mol
